Reference: patent US20250302816A1, “DISRUPTION OF EPITHELIAL BARRIERS FOR MOLECULAR DELIVERY ENHANCEMENT OR EXTRACTION OF EXTRACELLULAR FLUIDS” (The University of Nottingham, priority 2022, published 2025)

Columns and labels:
ex-vivo rat eyes = system: ex-vivo rat eyes
Protocol: In order to investigate the efficacy of 3OC12-HSL as drug delivery enhancer in intact tissue, bevacizumab (250 μg/mL: […]) and aflibercept (40 mg/mL: 348 μM) were applied with and without 3OC12-HSL to ex-vivo rat eyes, and the distribution of drugs was visualised within sagittal ocular cryosections by confocal microscopy. A further set of experiments tested efficacy of 3OC12-HSL via ex vivo porcine skin.
Six hooded rats with pigmented eyes, weighing 280-300 g and aged 7-8 weeks were provided by Bio-Support Unit at the Queen's Medical Centre, Nottingham. Experiments were designed to be performed ex-vivo, immediately post-sacrifice, during experiments supporting other studies. Tested therapies (bevacizumab (250 μg/mL), aflibercept (250 μg/mL) with/without 3OC12-HSL (200 μM) were immediately applied post-sacrifice in (50 μL) to the corneal surface of each animal for a period of 1 hour, before being washed off using ice-cold PBS. The eyeballs were enucleated, immersed in OCT, and flash-frozen in isopentane cooled by liquid N2 before being stored at −80° C. for further processing.
OCT-embedded eyes were cut into 15 μm tissue sections using a cryostat (Leica 3050) and mounted on gelatin-coated slides, at cutting temperatures between −15 and −23° C. […]

[1] = system: laser-induced mouse model of CNV; test: Laser-induced mouse model of choroidal neovascularisation (CNV); format: in vivo, C57BL/6J mice; conditions: day 7, topical drops to both eyes twice daily, bevacizumab 250 μg/mL
Protocol: FIG. 7: Anti-angiogenic efficacy of Bevacizumab with and without 3OC12-HSL (agent) in a laser-induced mouse model of CNV.in a mouse model of choroidal neovascularisation. C57BL/6J mice (n=6 per group) were subjected to laser photocoagulation (Merilas, 532α, 450 mW, 130 ms, 75 μm, 4 lesions per eye) on day 0. Post lasering animals received twice daily topical drops to both eyes10 μL of bevacizumab (250 μg/mL) with/without 3OC12-HSL and control vehicle only) for a total of 14 days. FFA was performed on days 7 and 14 and lesion area measured using Fiji software, n=lesions (mice). All data and graphs were calculated with Fiji and GraphPad Prism v8 and statistical analysis using an t-test, with Welch's correction, * p=<0.05, ** p=<0.01. Data bars represent mean±SEM. Scale bar 200 μm.
Six to eight week-old female C57BL/6J mice (16-20 g, Charles River, UK) were anaesthetized with an intraperitoneal (i.p.) injection of 50 mg/kg ketamine hydrochloride (Ketaset®, 100 mg/mL) and 0.5 mg/kg medetomidine hydrochloride (Sedastart®, 1 mg/mL). The pupils were dilated with a drop of 5% phenylephrine hydrochloride and 0.8% tropicamide to each eye. […] Fundus angiograms were imported into Fiji software and lesions were traced by a masked observer and lesion area was quantified over treatment time and compared between treatment groups. […]

Substance: Bevacizumab: recombinant humanized monoclonal IgG1 antibody which binds to human VEGF (MW 149 kDa)
- fluorescence in eye sections (CLSM) (ex-vivo rat eyes): No fluorescence was detected
- average lesion area [1]: 2.86±0.47×10^4
- penetration through skin (ex vivo porcine skin): 5 mm
